The numbers were not newly measured in publication PMC10474108, which cites them from elsewhere.

The target of the series is tau (full-length, nonphosphorylated) (Homo sapiens) (UniProt P10636).
UniProt P10636, sequence (P10636 2-758): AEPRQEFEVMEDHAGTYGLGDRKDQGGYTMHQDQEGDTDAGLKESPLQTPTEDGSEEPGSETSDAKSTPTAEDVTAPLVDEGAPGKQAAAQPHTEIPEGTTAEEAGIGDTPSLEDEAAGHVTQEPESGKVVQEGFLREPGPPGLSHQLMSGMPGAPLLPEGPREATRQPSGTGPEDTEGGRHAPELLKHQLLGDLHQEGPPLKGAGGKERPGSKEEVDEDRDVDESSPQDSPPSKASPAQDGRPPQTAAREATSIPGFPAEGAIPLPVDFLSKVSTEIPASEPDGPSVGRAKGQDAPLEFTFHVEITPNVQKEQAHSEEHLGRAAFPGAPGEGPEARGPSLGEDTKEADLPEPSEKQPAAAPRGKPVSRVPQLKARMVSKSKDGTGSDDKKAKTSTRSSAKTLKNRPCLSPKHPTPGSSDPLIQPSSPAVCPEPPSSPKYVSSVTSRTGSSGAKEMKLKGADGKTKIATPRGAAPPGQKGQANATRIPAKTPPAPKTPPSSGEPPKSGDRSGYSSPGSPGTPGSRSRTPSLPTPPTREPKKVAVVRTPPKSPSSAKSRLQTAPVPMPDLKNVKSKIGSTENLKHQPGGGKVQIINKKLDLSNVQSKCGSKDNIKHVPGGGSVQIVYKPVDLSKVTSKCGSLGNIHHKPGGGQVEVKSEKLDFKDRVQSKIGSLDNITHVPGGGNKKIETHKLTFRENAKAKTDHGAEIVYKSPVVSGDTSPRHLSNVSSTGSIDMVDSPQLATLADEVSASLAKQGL

In the case of LRP1 (from UniProt Q07954), the Kd (usually the concentration at which binding is half-saturated) is 60 nM.
